For this assay, the target named is Ac-KE7 (Homo sapiens, UniProt P05067). The assay can be described thus: Rheology of Ac-KE7 mixed with inhibitor (storage modulus, gel vs solution). Type of assay: physicochemical. The following applies: 1.5 mM Ac-KE7 mixed with inhibitor in 1:20 molar ratio, 25° C. The source says: Rheology. To determine the viscoelastic properties/behaviour, peptide-based hydrogels were subjected to dynamic time, strain and frequency sweep experiments using the ARES-G2 rheometer (TA Instruments, Piscataway, N.J.) with a 25.0 mm diameter stainless steel or titanium parallel plate geometry and a 0.8 mm or 1-2 mm gap distance. To ensure complete gelation and take account of the varying gelation speeds of different peptides at different concentrations, the rheology measurements were done 2 months after sample preparation. Oscillatory frequency sweep studies (measuring storage modulus (G′) vs. Angular frequency (ω)) were done at 0.1-100 rad/s using 1% strain. Oscillatory amplitude sweep studies (measuring storage modulus (G′) vs. oscillation strain % (γ)) were done using 0.01-100% strain with a constant angular frequency of 1 rad/s. All measurements were carried out at 25° C. […] The graphs display the storage moduli (G′ in Pa) as a function of (A) angular frequency (rad/sec) under 1% strain and (B) oscillation strain (%) at an angular frequency of 1 rad/sec at room temperature of 25° C. […] This can be seen from the rheological data, where the peptide-inhibitor solutions give a highly fluctuating curve for both the amplitude and frequency sweep measurements because they are in solution form; instead of a gel form.

Ends that are not written are not given here.

For the substance “Ac-LPE (Ac-Leu-Pro-Glu) [N-acetylated tripeptide Leu-Pro-Glu]”, the “hydrogel formation of Ac-KE7 (rheology)” value is reported as “no gelation”.
As to “Ac-LPG (Ac-Leu-Pro-Gly) [N-acetylated tripeptide Leu-Pro-Gly]”, the “hydrogel formation of Ac-KE7 (rheology)” value is given as “no gelation”.

Source of the values: patent publication US20140256625A1, “ANTI-AMYLOIDOGENIC, ALPHA-HELIX BREAKING ULTRA-SMALL PEPTIDE THERAPEUTICS” (AGENCY FOR SCIENCE, TECHNOLOGY AND RESEARCH, priority 2011, published 2014).
